The record followed here is IntAct's records for PubMed 9502724.

The chains are these.
B1: Protein mothers against dpp (Drosophila melanogaster (Fruit fly)), P42003 (parent)
chain: MDTDDVESNTSSAMSTLGSLFSFTSPAVKKLLGWKQGDEEEKWAEKAVDSLVKKLKKRKGAIEELERALSCPGQPSKCVTIPRSLDGRLQVSHRKGLPHVIYCRVWRWPDLQSHHELKPLELCQYPFSAKQKEVCINPYHYKRVESPVLPPVLVPRHSEFAPGHSMLQFNHVAEPSMPHNVSYSNSGFNSHSLSTSNTSVGSPSSVNSNPNSPYDSLAGTPPPAYSPSEDGNSNNPNDGGQLLDAQMGDVAQVSYSEPAFWASIAYYELNCRVGEVFHCNNNSVIVDGFTNPSNNSDRCCLGQLSNVNRNSTIENTRRHIGKGVHLYYVTGEVYAECLSDSAIFVQSRNCNYHHGFHPSTVCKIPPGCSLKIFNNQEFAQLLSQSVNNGFEAVYELTKMCTIRMSFVKGWGAEYHRQDVTSTPCWIEIHLHGPLQWLDKVLTQMGSPHNAISSVS
B2: Mothers against decapentaplegic homolog (Drosophila melanogaster (Fruit fly)), O62609 (parent)
chain: MGGGSGACPPAHMYGAVAPQDIIVRDMVQMPPPPSNAPTSADACLSIVHSLMCHRQGGESEGFAKRAIESLVKKLKEKRDELDSLITAITTNGAHPSKCVTIQRTLDGRLQVAGRKGFPHVIYARIWRWPDLHKNELKHVKYCAFAFDLKCDSVCVNPYHYERVVSPGIDLSGLSLQSGPSRLVKDEYSAGPLVGSMDIDGNDIGTIQHHPTQMVGPGGYGYPQGPSEYVGDANPMSAMFPTGRTIPKIEPQDGVAGSRGSWMVPPPPRLGQPPQQQQQQPQQQTPQPTQQQQAQSQAAAHSLPVPHGMPGMPGPMNPGPVMAPPPPPQQAQNPQGNGVHHTQANSPTDPASALAMQQQQQQQQQQQQQQQQQQQQSGGVPNGSVNAGGGAAAGGQYYGQPPPVSQMQGAGGGGTSVAPSVHAQQNGYVSQPGSAGSAPVGGGGVFGTAQPTPQQPQQPPTGVQANTGSAGAQAGAGGGAAGTWTGPNTLTYTQSMQPPDPRSLPGGFWNSSLSGDLGSPQQTPPQQQQQQQQPRLLSRQPPPEYWCSIAYFELDTQVGETFKVPSAKPNVIIDGYVDPSGGNRFCLGALSNVHRTEQSERARLHIGKGVQLDLRGEGDVWLRCLSDNSVFVQSYYLDREAGRTPGDAVHKIYPAACIKVFDLRQCHQQMHSLATNAQAAAAAQAAAVAGVANQQMGGGGRSMTAAAGIGVDDLRRLCILRLSFVKGWGPDYPRQSIKETPCWIEVHLHRALQLLDEVLHAMPIDGPRAAA

Variants of B1 are the subject of one assay. The note with it: with Med, O62609.
As for S452A;S453A;S455A, the “effect of a mutation on the interaction” value is “disrupting interaction strength”.

Another assay covers variants of B2. The note with it: with mad_drome Mad, P42003.
As for G727D, the “effect of a mutation on the interaction” value is on record as “disrupting interaction strength”.

C99S: the “effect of a mutation on the interaction” value is listed as “with no effect”.
